# Results reported in patent publication US20120172293A1 (Takeda / Millennium, published 2012).
# Non-standard residues stand in square brackets, D forms with d. *: point of attachment. Amidino = amidino group, N=C(N)*; tBuAla = CC(C)(C)C[C@H](N)C(=O)O; Cha = N[C@@H](CC1CCCCC1)C(=O)O; Aib = CC(C)(N)C(=O)O
# T1: human Y2 receptor (human, UniProt P49146 1-381)
# T1 sequence (looked up): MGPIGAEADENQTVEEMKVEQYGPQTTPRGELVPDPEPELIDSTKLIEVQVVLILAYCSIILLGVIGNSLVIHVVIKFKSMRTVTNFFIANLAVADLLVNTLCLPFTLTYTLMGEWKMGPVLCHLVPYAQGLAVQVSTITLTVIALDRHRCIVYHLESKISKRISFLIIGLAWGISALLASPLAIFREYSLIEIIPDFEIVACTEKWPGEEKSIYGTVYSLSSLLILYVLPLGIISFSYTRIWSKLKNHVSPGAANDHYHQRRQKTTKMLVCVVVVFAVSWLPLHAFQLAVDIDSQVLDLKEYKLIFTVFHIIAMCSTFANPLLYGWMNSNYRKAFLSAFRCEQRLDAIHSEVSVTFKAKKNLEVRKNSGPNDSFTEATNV
# Legend:
# human Y2 receptor [1] = molecular target: T1, human Y2 receptor; assay: cell-based or functional assay
# human Y2 receptor [2] = molecular target: T1, human Y2 receptor; assay: RBA: [125I]-PYY displacement, hY2R/CHO membranes
# Experimental: After incubation at room temperature for 60 minutes, the mixture was filtered through the cell harvester FilterMate (PerkinElmer) using UniFilter-96 GF/C treated with polyethylenimine (PEI) solution (20 mM Tris, 0.3% PEI, pH 7.4), and the filter was washed 3 times with a filtering buffer (50 mM Tris, 5 mM MgCl₂, 150 mM NaCl, 0.03% NaN₃, 0.05% CHAPS, pH 7.4). Thereafter, UniFilter-96 GF/C was dried in a mechanical drier for 1 hour, 15 μl of the liquid scintillator MicroScint O (PerkinElmer) was added to each well, and a measurement was taken using TopCount (PerkinElmer). The data obtained were analyzed using Prism to calculate the IC₅₀ value.
"GBA EC50 Ratio (vs PYY(3-36)), [35S]GTPγS (human Y2 receptor [1]) [ratio]",IC50 Ratio (vs PYY(3-36)) (human Y2 receptor [2]) [ratio],Binder
1.7,2.4,"Ac-N[dP]RH[Cha][Cha]NL[Aib]TRQR[Cha]-NH2 (SMILES CC(=O)N[C@@H](CC(N)=O)C(=O)N1CCC[C@@H]1C(=O)N[C@@H](CCCNC(=N)N)C(=O)N[C@@H](Cc1c[nH]cn1)C(=O)N[C@@H](CC1CCCCC1)C(=O)N[C@@H](CC1CCCCC1)C(=O)N[C@@H](CC(N)=O)C(=O)N[C@@H](CC(C)C)C(=O)NC(C)(C)C(=O)N[C@H](C(=O)N[C@@H](CCCNC(=N)N)C(=O)N[C@@H](CCC(N)=O)C(=O)N[C@@H](CCCNC(=N)N)C(=O)N[C@@H](CC1CCCCC1)C(N)=O)[C@@H](C)O, also called compound No. 115) [Ac-[Asn23, D-Pro24, Cha27,28,36, Aib31]-PYY(23-36)]"
0.63,0.57,"Ac-S[dP]RH[Cha][tBuAla]NK[Aib]TRQR[Cha]-NH2 (SMILES CC(=O)N[C@@H](CO)C(=O)N1CCC[C@@H]1C(=O)N[C@@H](CCCNC(=N)N)C(=O)N[C@@H](Cc1c[nH]cn1)C(=O)N[C@@H](CC1CCCCC1)C(=O)N[C@@H](CC(C)(C)C)C(=O)N[C@@H](CC(N)=O)C(=O)N[C@@H](CCCCN)C(=O)NC(C)(C)C(=O)N[C@H](C(=O)N[C@@H](CCCNC(=N)N)C(=O)N[C@@H](CCC(N)=O)C(=O)N[C@@H](CCCNC(=N)N)C(=O)N[C@@H](CC1CCCCC1)C(N)=O)[C@@H](C)O, also called compound No. 136) [Ac-[D-Pro24, Cha27,36, Leu(Me)28, Lys30, Aib31]-PYY(23-36)]"
2.1,9.3,"Ac-S[dP]RT[Cha][Cha]NL[Aib]TRQR[Cha]-NH2 (SMILES CC(=O)N[C@@H](CO)C(=O)N1CCC[C@@H]1C(=O)N[C@@H](CCCNC(=N)N)C(=O)N[C@H](C(=O)N[C@@H](CC1CCCCC1)C(=O)N[C@@H](CC1CCCCC1)C(=O)N[C@@H](CC(N)=O)C(=O)N[C@@H](CC(C)C)C(=O)NC(C)(C)C(=O)N[C@H](C(=O)N[C@@H](CCCNC(=N)N)C(=O)N[C@@H](CCC(N)=O)C(=O)N[C@@H](CCCNC(=N)N)C(=O)N[C@@H](CC1CCCCC1)C(N)=O)[C@@H](C)O)[C@@H](C)O, also called compound No. 147) [Ac-[D-Pro24, Thr26, Cha27,28,36, Aib31]-PYY(23-36)]"
2.6,7.1,"Ac-[dT][dP]RH[Cha][Cha]NL[Aib]TRQR[Cha]-NH2 (SMILES CC(=O)N[C@@H](C(=O)N1CCC[C@@H]1C(=O)N[C@@H](CCCNC(=N)N)C(=O)N[C@@H](Cc1c[nH]cn1)C(=O)N[C@@H](CC1CCCCC1)C(=O)N[C@@H](CC1CCCCC1)C(=O)N[C@@H](CC(N)=O)C(=O)N[C@@H](CC(C)C)C(=O)NC(C)(C)C(=O)N[C@H](C(=O)N[C@@H](CCCNC(=N)N)C(=O)N[C@@H](CCC(N)=O)C(=O)N[C@@H](CCCNC(=N)N)C(=O)N[C@@H](CC1CCCCC1)C(N)=O)[C@@H](C)O)[C@H](C)O, also called compound No. 158) [Ac-[D-Thr23, D-Pro24, Cha27,28,36, Aib31]-PYY(23-36)]"
9.5,68,"Ac-S[dP]RE[Cha][Cha]NL[Aib]TRQR[Cha]-NH2 (SMILES CC(=O)N[C@@H](CO)C(=O)N1CCC[C@@H]1C(=O)N[C@@H](CCCNC(=N)N)C(=O)N[C@@H](CCC(=O)O)C(=O)N[C@@H](CC1CCCCC1)C(=O)N[C@@H](CC1CCCCC1)C(=O)N[C@@H](CC(N)=O)C(=O)N[C@@H](CC(C)C)C(=O)NC(C)(C)C(=O)N[C@H](C(=O)N[C@@H](CCCNC(=N)N)C(=O)N[C@@H](CCC(N)=O)C(=O)N[C@@H](CCCNC(=N)N)C(=O)N[C@@H](CC1CCCCC1)C(N)=O)[C@@H](C)O, also called compound No. 151) [Ac-[D-Pro24, Glu26, Cha27,28,36, Aib31]-PYY(23-36)]"
1.1,0.73,"Ac-E[dP]RH[Cha][tBuAla]NK[Aib]TRQR[Cha]-NH2 (SMILES CC(=O)N[C@@H](CCC(=O)O)C(=O)N1CCC[C@@H]1C(=O)N[C@@H](CCCNC(=N)N)C(=O)N[C@@H](Cc1c[nH]cn1)C(=O)N[C@@H](CC1CCCCC1)C(=O)N[C@@H](CC(C)(C)C)C(=O)N[C@@H](CC(N)=O)C(=O)N[C@@H](CCCCN)C(=O)NC(C)(C)C(=O)N[C@H](C(=O)N[C@@H](CCCNC(=N)N)C(=O)N[C@@H](CCC(N)=O)C(=O)N[C@@H](CCCNC(=N)N)C(=O)N[C@@H](CC1CCCCC1)C(N)=O)[C@@H](C)O, also called compound No. 168) [Ac-[Glu23, D-Pro24, Cha27,36, Leu(Me)28, Lys30, Aib31]-PYY(23-36)]"
1.8,3.6,"Ac-E[dP]RH[Cha][Cha]NK[Aib]TRQR[Cha]-NH2 (SMILES CC(=O)N[C@@H](CCC(=O)O)C(=O)N1CCC[C@@H]1C(=O)N[C@@H](CCCNC(=N)N)C(=O)N[C@@H](Cc1c[nH]cn1)C(=O)N[C@@H](CC1CCCCC1)C(=O)N[C@@H](CC1CCCCC1)C(=O)N[C@@H](CC(N)=O)C(=O)N[C@@H](CCCCN)C(=O)NC(C)(C)C(=O)N[C@H](C(=O)N[C@@H](CCCNC(=N)N)C(=O)N[C@@H](CCC(N)=O)C(=O)N[C@@H](CCCNC(=N)N)C(=O)N[C@@H](CC1CCCCC1)C(N)=O)[C@@H](C)O, also called compound No. 137) [Ac-[Glu23, D-Pro24, Cha27,28,36, Lys30, Aib31]-PYY(23-36)]"
0.69,0.43,"Amidino-S[dP]RH[Cha][tBuAla]NK[Aib]TRQR[Cha]-NH2 (SMILES C[C@@H](O)[C@H](NC(=O)C(C)(C)NC(=O)[C@H](CCCCN)NC(=O)[C@H](CC(N)=O)NC(=O)[C@H](CC(C)(C)C)NC(=O)[C@H](CC1CCCCC1)NC(=O)[C@H](Cc1c[nH]cn1)NC(=O)[C@H](CCCNC(=N)N)NC(=O)[C@H]1CCCN1C(=O)[C@H](CO)NC(=N)N)C(=O)N[C@@H](CCCNC(=N)N)C(=O)N[C@@H](CCC(N)=O)C(=O)N[C@@H](CCCNC(=N)N)C(=O)N[C@@H](CC1CCCCC1)C(N)=O, also called compound No. 186) [Amidino-[D-Pro24, Cha27,36, Leu(Me)28, Lys30, Aib31]-PYY(23-36)]"
0.84,1.9,"Ac-S[dP]RH[Cha][Aib]NK[Aib]TRQR[Cha]-NH2 (SMILES CC(=O)N[C@@H](CO)C(=O)N1CCC[C@@H]1C(=O)N[C@@H](CCCNC(=N)N)C(=O)N[C@@H](Cc1c[nH]cn1)C(=O)N[C@@H](CC1CCCCC1)C(=O)NC(C)(C)C(=O)N[C@@H](CC(N)=O)C(=O)N[C@@H](CCCCN)C(=O)NC(C)(C)C(=O)N[C@H](C(=O)N[C@@H](CCCNC(=N)N)C(=O)N[C@@H](CCC(N)=O)C(=O)N[C@@H](CCCNC(=N)N)C(=O)N[C@@H](CC1CCCCC1)C(N)=O)[C@@H](C)O, also called compound No. 135) [Ac-[D-Pro24, Cha27,36, Aib28, Lys30, Aib31]-PYY(23-36)]"
1.6,2.9,"Ac-E[dP]RH[Cha][Aib]NK[Aib]TRQR[Cha]-NH2 (SMILES CC(=O)N[C@@H](CCC(=O)O)C(=O)N1CCC[C@@H]1C(=O)N[C@@H](CCCNC(=N)N)C(=O)N[C@@H](Cc1c[nH]cn1)C(=O)N[C@@H](CC1CCCCC1)C(=O)NC(C)(C)C(=O)N[C@@H](CC(N)=O)C(=O)N[C@@H](CCCCN)C(=O)NC(C)(C)C(=O)N[C@H](C(=O)N[C@@H](CCCNC(=N)N)C(=O)N[C@@H](CCC(N)=O)C(=O)N[C@@H](CCCNC(=N)N)C(=O)N[C@@H](CC1CCCCC1)C(N)=O)[C@@H](C)O, also called compound No. 171) [Ac-[Glu23, D-Pro24, Cha27,36, Aib28,31, Lys30]-PYY(23-36)]"
3.1,6.1,"Ac-S[dP]RH[Cha][Cha]NT[Aib]TRQR[Cha]-NH2 (SMILES CC(=O)N[C@@H](CO)C(=O)N1CCC[C@@H]1C(=O)N[C@@H](CCCNC(=N)N)C(=O)N[C@@H](Cc1c[nH]cn1)C(=O)N[C@@H](CC1CCCCC1)C(=O)N[C@@H](CC1CCCCC1)C(=O)N[C@@H](CC(N)=O)C(=O)N[C@H](C(=O)NC(C)(C)C(=O)N[C@H](C(=O)N[C@@H](CCCNC(=N)N)C(=O)N[C@@H](CCC(N)=O)C(=O)N[C@@H](CCCNC(=N)N)C(=O)N[C@@H](CC1CCCCC1)C(N)=O)[C@@H](C)O)[C@@H](C)O, also called compound No. 132) [Ac-[D-Pro24, Cha27,28,36, Thr30, Aib31]-PYY(23-36)]"
3.9,6.3,"Ac-SGRH[Cha][Cha]NL[Aib]TRQR[Cha]-NH2 (SMILES CC(=O)N[C@@H](CO)C(=O)NCC(=O)N[C@@H](CCCNC(=N)N)C(=O)N[C@@H](Cc1c[nH]cn1)C(=O)N[C@@H](CC1CCCCC1)C(=O)N[C@@H](CC1CCCCC1)C(=O)N[C@@H](CC(N)=O)C(=O)N[C@@H](CC(C)C)C(=O)NC(C)(C)C(=O)N[C@H](C(=O)N[C@@H](CCCNC(=N)N)C(=O)N[C@@H](CCC(N)=O)C(=O)N[C@@H](CCCNC(=N)N)C(=O)N[C@@H](CC1CCCCC1)C(N)=O)[C@@H](C)O, also called compound No. 112) [Ac-[Gly24, Cha27,28,36, Aib31]-PYY(23-36)]"
2.6,5.2,"Ac-Y[dP]RH[Cha][Cha]NL[Aib]TRQR[Cha]-NH2 (SMILES CC(=O)N[C@@H](Cc1ccc(O)cc1)C(=O)N1CCC[C@@H]1C(=O)N[C@@H](CCCNC(=N)N)C(=O)N[C@@H](Cc1c[nH]cn1)C(=O)N[C@@H](CC1CCCCC1)C(=O)N[C@@H](CC1CCCCC1)C(=O)N[C@@H](CC(N)=O)C(=O)N[C@@H](CC(C)C)C(=O)NC(C)(C)C(=O)N[C@H](C(=O)N[C@@H](CCCNC(=N)N)C(=O)N[C@@H](CCC(N)=O)C(=O)N[C@@H](CCCNC(=N)N)C(=O)N[C@@H](CC1CCCCC1)C(N)=O)[C@@H](C)O, also called compound No. 162) [Ac-[Tyr23, D-Pro24, Cha27,28,36, Aib31]-PYY(23-36)]"
